Target: S. pombe Dcp2(1–243) (S. pombe) (UniProt O13828)
Sequence of UniProt O13828 (O13828 1-243): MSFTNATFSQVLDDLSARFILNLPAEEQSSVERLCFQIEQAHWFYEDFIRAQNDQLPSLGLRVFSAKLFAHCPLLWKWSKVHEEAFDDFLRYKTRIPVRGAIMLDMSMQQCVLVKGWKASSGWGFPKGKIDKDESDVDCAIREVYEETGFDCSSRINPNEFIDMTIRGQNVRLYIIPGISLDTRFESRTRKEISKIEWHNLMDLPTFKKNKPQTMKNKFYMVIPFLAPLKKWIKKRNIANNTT

Sp Edc1 (155–180) peptide gave a kmax of single-turnover in vitro decapping of a capped 29-mer RNA by Sp Dcp1–Dcp2(1–243) (m7 in complex with m6), with and without Edc1(155–180) peptide (50 µM) of 10 fold.

From paper PMC5861098
